Assay results published in article PMC11653685, “Crystal structure of Alzheimer's disease phospholipase D3 provides a molecular basis for understanding its normal and pathological functions” (The Febs Journal, 2024).

Molecular target: the molecule itself
Assay: crystal structure; hPLD3 luminal domain with the hexa-His tag left on; crystals grown at 20 °C in 0.17 M ammonium sulfate, 15% glycerol, 25% PEG 4000; 2.3 Å; two molecules in the asymmetric unit

B1: human phospholipase D3 (hPLD3) luminal domain, residues N71-L490 (domain or fragment, UniProt Q8IV08 71-490, looked up)
chain: NQRPAPCYDPCEAVLVESIPEGLDFPNASTGNPSTSQAWLGLLAGAHSSLDIASFYWTLTNNDTHTQEPSAQQGEEVLRQLQTLAPKGVNVRIAVSKPSGPQPQADLQALLQSGAQVRMVDMQKLTHGVLHTKFWVVDQTHFYLGSANMDWRSLTQVKELGVVMYNCSCLARDLTKIFEAYWFLGQAGSSIPSTWPRFYDTRYNQETPMEICLNGTPALAYLASAPPPLCPSGRTPDLKALLNVVDNARSFIYVAVMNYLPTLEFSHPHRFWPAIDDGLRRATYERGVKVRLLISCWGHSEPSMRAFLLSLAALRDNHTHSDIQVKLFVVPADEAQARIPYARVNHNKYMVTERATYIGTSNWSGNYFTETAGTSLLVTQNGRGGLRSQLEAIFLRDWDSPYSHDLDTSADSVGNACRLL
modifications: N-linked GlcNAc at N236 and N284 (seen in the electron density)
notes: also called soluble form of the enzyme; source: Expi293 GnTI- cells, transfected, secreted; purified from culture supernatant (HisTrap excel, Superdex 200 SEC); not shown: His6, N-terminal, kept
stoichiometry N: 2
